Experimental data: JP2013172663A (dated 2013)

Biological target: T1, ヒト心筋由来トロポニンI (human, UniProt P19429 2-210)
T1 construct: It is not the protein on the chip; also called human cardiac troponin I; cTnI
Assay: SPR (Biacore T100), troponin I on a CM5 chip, scFv as analyte

T1 sequence (P19429 2-210 limits assumed): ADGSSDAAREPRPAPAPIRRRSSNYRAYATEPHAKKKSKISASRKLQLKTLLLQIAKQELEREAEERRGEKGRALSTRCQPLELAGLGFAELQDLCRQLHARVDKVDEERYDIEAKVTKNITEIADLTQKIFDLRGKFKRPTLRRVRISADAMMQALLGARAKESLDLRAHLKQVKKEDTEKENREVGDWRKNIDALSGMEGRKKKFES

binding result: binds
B1: 野生型scFv抗体フラグメント(配列番号:62) (scFv)
scFv: DVVLTQSPLTLSVTIGQPASISCKSSQSLLDSDGKTYLNWLLQRPGQSPKRLIYLVSKLDSGVPDRFTGSGSGTDFTLKISRVEAEDLGVYYCWQGTHFPLTFGAGTKLEIKRGGGGSGGGGSGGGGSQLQLQQSGAELVRSGASVKLSCTASGFNIKDYYMNWVKQRPEQGLEWIGWIDPANGDTAYAPRFQVKATMTADKSSNTAYLQLSSLTSEDTAVYYCNADLPMDQWGQGTSVTVSSAAALEHHHHHH
notes: also called 野生scFv抗体フラグメント; 野生型scFv抗体フラグメント
